Patent US20240317847A1 (Bayer, published 2024)
Where a chain is given by its changes, count along the chain named.

Experiments:
human IL-11 [1] = biological target: T1, human IL-11 (human, UniProt P20809 22-199); test: cell-based or functional assay
T1 sequence: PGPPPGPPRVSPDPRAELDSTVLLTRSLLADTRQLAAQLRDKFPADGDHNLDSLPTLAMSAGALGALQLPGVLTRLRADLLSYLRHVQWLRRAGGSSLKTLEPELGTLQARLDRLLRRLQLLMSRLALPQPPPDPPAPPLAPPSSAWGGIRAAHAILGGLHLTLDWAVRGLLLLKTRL

murine IL-11 [2] = biological target: T2, murine IL-11 (mouse, UniProt P47873 22-199); test: cell-based or functional assay
T2 sequence: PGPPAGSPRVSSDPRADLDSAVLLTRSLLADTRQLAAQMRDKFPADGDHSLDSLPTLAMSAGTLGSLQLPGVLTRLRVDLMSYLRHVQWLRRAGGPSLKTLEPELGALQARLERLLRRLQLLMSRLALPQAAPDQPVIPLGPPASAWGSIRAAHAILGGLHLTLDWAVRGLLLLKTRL

human IL-11 [3] = biological target: T1, human IL-11; test: Tri-complex ELISA, hIL-11 + mIL-11Ra-Fc + hgp130-Fc, inhibition of complex formation
Procedure: (§1) In the Tri-complex ELISA format IL-11 antibodies are tested for their ability to inhibit the formation of a complex consisting of murine or human gp130-Fc fusion protein, with murine or human IL-11, and a murine IL11RA-Fc fusion protein. The assay format was adapted according to FIG. 18 (a, b), depending on whether murine or human IL-11 IgG antibodies were tested.
(§2) Bispecific antibodies were subjected to the experimental assay procedure described in Example 19 and IC50 [M], respectively efficacy (%) were calculated accordingly.

human IL2Ra = biological target: T3, human IL2Ra (human, UniProt P01589 22-240, limits assumed); test: ELISA on coated IL2Ra, signal ratio to isotype control at 1E-07 M antibody
T3 construct: coated on the ELISA plate; also called IL-2 receptor alpha
T3 sequence (looked up): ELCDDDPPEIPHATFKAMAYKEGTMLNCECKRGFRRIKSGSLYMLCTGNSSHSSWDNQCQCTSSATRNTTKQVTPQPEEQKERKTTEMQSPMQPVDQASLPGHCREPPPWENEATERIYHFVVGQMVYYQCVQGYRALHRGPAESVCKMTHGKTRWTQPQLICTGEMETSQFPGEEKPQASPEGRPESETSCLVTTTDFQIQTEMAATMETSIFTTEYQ
Procedure: IL2RA (Peprotech, Germany, #200-02RC) was coated at 1 or 0 μg/ml (buffer only control) in 30 μl coating buffer (Candor, #113500) per well on a 384 well microtiter plate (Maxisorb, Nunc, #460518) over night at 4-8° C. After two washes with 50 μl/well washing buffer (PBS+0.05% Tween, pH 7.4), the plates were incubated for two hours at room temperature with 50 μl/well SmartBlock (Candor, #113500). After blocking, the plates were washed three times with washing buffer. Then, a dilution series of the respective antibody (1E-7 [M] down to 2E-13 [M]) in PBS+0.05% Tween, 10% SmartBlock were added in 30 μl to the microtiter plate and incubated for 90 min at room temperature. After three additional washes, 30 μl anti mouse IgG HRP-conjugated antibody (Biotechne, HAF007), diluted 1:1000 in PBS+0.05% Tween (pH 7.4), were added per well and incubated for one hour. After three additional washes, a mixture of Amplex red (Invitrogen, #12222, 10 mM stock solution in DMSO) 1:1000 diluted in PBS and H2O2 (30%, Merck, #107209)) diluted 1:10000 in PBS were added as substrate with 30 μl per well and incubated for 20 min in the dark. Relative fluorescence was measured with a microtiter plate reader at 535/590 nm.
Bispecific antibodies were subjected to the experimental assay procedure described in Example 20. Ratios of the signals generated at an antibody concentration of 1E-07 [M] by the respective bispecific antibody versus those of an isotype control antibody were calculated and are shown in Table E29. The bispecific antibodies show no binding to IL-2 Ra.

murine IL-11 [4] = biological target: T2, murine IL-11; test: Tri-complex ELISA, mIL-11 + mIL-11Ra-Fc + mgp130-Fc, inhibition of complex formation
Procedure: as §1, §2

murine IL-11 [5] = biological target: T2, murine IL-11; test: Di-complex ELISA, murine IL11RA-Fc binding to immobilized mIL-11, competition
Procedure: In the Di-complex ELISA format anti IL-11 antibodies are tested for the ability to interfere with the formation of complexes consisting of immobilized murine IL-11 (Invigate, e.g., lot #C210819-09) or human IL-11 (Invigate, e.g., lot #C121021-19), and murine IL11RA-Fc fusion proteins or canine IL11RA-human-Fc fusion protein (FIG. 17a, b).
Bispecific antibodies were subjected to the experimental assay procedure described in Example 18 and IC50 [M], respectively efficacy (%) were calculated accordingly.

human IL-11 [6] = biological target: T1, human IL-11; test: SPR (Biacore), 25 C, antibody captured via anti-Fc, IL-11 as analyte
Procedure: (§3) To assess the binding kinetics and affinity of anti-IL-11 bispecific antibodies as well as their species cross-reactivity profile, binding assays were conducted using surface plasmon resonance (SPR). […] Antibodies were captured either via anti-human Fc IgGs (“Human antibody capture kit”, Order No. BR100839, Cytiva) or via anti-mouse Fc IgGs (“Mouse antibody capture kit, Order No. BR100383, Cytiva) covalently amine coupled to a Series S CM5 sensor chip (Cytiva) depending on the isotype. The amine coupling was carried out according to the manufacturer's instructions using 1-ethyl-3-(3-dimethylaminopropyl) carbodiimide hydrochloride (EDC), N-hydroxysuccinimide (NHS) and ethanolamine HCl, pH 8.5 (“Amine Coupling Kit” BR-1000-50, Cytiva.). Human, mouse, cynomolgus or rat IL-11 was used as analyte at several dilutions within the concentration range from 0.05-200 nM. For binding assays with only one concentration 200 nM IL-11 was used. The sensor surface was regenerated with glycine pH 1.7 after each antigen injection. Obtained sensorgrams were double referenced (subtraction of reference flow cell signal and buffer injection) and were fitted to a 1:1 Langmuir binding model to derive kinetic data using the Biacore T200 Evaluation software or the Biacore Insight software.
(§4) If no value is reported, there was either no binding or very low binding and multiphasic binding behavior.

murine IL-11 [7] = biological target: T2, murine IL-11; test: as above
Procedure: as §3, §4

cynomolgus IL-11 [8] = biological target: T4, cynomolgus IL-11 (cynomolgus, UniProt P20808 22-199); test: as above
T4 construct: Invigate recombinant protein; also called cIL11; Macaca IL-11
T4 sequence: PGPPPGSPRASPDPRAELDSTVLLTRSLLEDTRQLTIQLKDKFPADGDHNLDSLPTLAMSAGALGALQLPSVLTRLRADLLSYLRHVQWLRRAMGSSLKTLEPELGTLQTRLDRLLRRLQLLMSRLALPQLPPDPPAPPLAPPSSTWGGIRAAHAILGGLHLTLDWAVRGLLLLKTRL
Procedure: as §3, §4

rat IL-11 [9] = biological target: T5, rat IL-11 (rat, UniProt Q99MF5 22-199); test: as above
T5 construct: Invigate recombinant protein; also called rIL11
T5 sequence: T2 sequence with S50N, L84F, G94A, V137A, I138V
Procedure: as §3, §4

human IL-11 [10] = biological target: T6, human IL-11 (human, UniProt P20809 22-199); test: cell-based or functional assay; remark: listed apart in the source
T6 sequence: T1 sequence

cynomolgus IL-11 [11] = biological target: T7, cynomolgus IL-11 (cynomolgus, UniProt P20808 22-199); test: cell-based or functional assay
T7 sequence: T4 sequence

murine IL-11 [12] = biological target: T8, murine IL-11 (mouse, UniProt P47873 22-199); test: cell-based or functional assay; remark: listed apart in the source
T8 sequence: T2 sequence

rat IL-11 [13] = biological target: T9, rat IL-11 (rat, UniProt Q99MF5 22-199); test: cell-based or functional assay
T9 sequence: T2 sequence with S50N, L84F, G94A, V137A, I138V

human IL-11 [14] = biological target: T6, human IL-11; test: SPR 37 C, antibody captured, IL-11 as analyte
cynomolgus IL-11 [15] = biological target: T7, cynomolgus IL-11; test: SPR 37 C, antibody captured, IL-11 as analyte
murine IL-11 [16] = biological target: T8, murine IL-11; test: SPR 37 C, antibody captured, IL-11 as analyte
rat IL-11 [17] = biological target: T9, rat IL-11; test: SPR 37 C, antibody captured, IL-11 as analyte
human IL-11 [18] = biological target: T6, human IL-11; test: Di-complex ELISA, competitor murine IL11RA-Fc on coated IL-11
murine IL-11 [19] = biological target: T8, murine IL-11; test: as above

B1: TPP-20489 (bispecific antibody, IgG1)
chain 1: not shown
chain 2: EVQLLESGGGLVQPGGSLRLSCAASGFTFSHYDMNWLRQAPGKGLEWVGVISYDGSNKFYADFVKGRFTISRDNSKNTLYLQMNSLRAEDTAVYYCARTPGSHFDYWGQGTLVTVSSGGGGSGGGGSGGGGSQSVLTQPPSASGTPGQRVTISCSGSSSNIGNNAVNWYQQLPGTAPKLLIYYDDLLPSGVPDRFSGSKSGTSASLAISGLRSEDEADYYCSAWDDSLNGVVFGGGTKLTVLGGGGSGGGGSGGGGSGVECPPCPAPELLGGPSVFLFPPKPKDTLMISRTPEVTCVVVDVSHEDPEVKFNWYVDGVEVHNAKTKPREEQYNSTYRVVSVLTVLHQDWLNGKEYKCKVSNKALPAPIEKTISKAKGQPREPQVCTLPPSRDELTKNQVSLSCAVKGFYPSDIAVEWESNGQPENNYKTTPPVLDSDGSFFLVSKLTVDKSRWQQGNVFSCSVMHEALHNHYTQKSLSLSPG
notes: scFv-kih-hIgG1
With B1 the “Efficacy (%), Stat3 reporter gene assay” value (human IL-11 [1]) was 102%, the “IC50, Stat3 reporter gene assay” value (human IL-11 [1]) was 0.31 nM and the “Efficacy (%), Stat3 reporter gene assay” value (murine IL-11 [2]) was 93.9%. For the same binder, the “IC50, Stat3 reporter gene assay” value (murine IL-11 [2]) was 1 nM, the “Efficacy (%)” value (human IL-11 [3]) was 105% and the IC50 (human IL-11 [3]) was 6.28 nM. For the same binder, the “Ratio IL-2Ra Binding Signal Antibody/Isotype Control” value (human IL2Ra) was 852 ratio, the “Efficacy (%)” value (murine IL-11 [4]) was 94% and the IC50 (murine IL-11 [4]) was 1.81 nM. It also gave an IC50 (murine IL-11 [5]) of 35 nM, a Kd (human IL-11 [6]) of 0.011 nM and a Kd (murine IL-11 [7]) of 0.005 nM. For the same binder, the Kd (cynomolgus IL-11 [8]) was 0.025 nM and the Kd (rat IL-11 [9]) was 0.0026 nM.

B2: TPP-23552 (antibody, human IgG1, kappa)
heavy: not shown
light: DIVLTQSPASLALSPGERATLSCRASKSVSTSGYSYIHWYQQKPGQPPRLLIYLASNLDSGVPARFSGSGSGTDFTLNIHPLEEEDFATYYCQHSRDLPPTFGQGTKLEIKRTVAAPSVFIFPPSDEQLKSGTASVVCLLNNFYPREAKVQWKVDNALQSGNSQESVTEQDSKDSTYSLSSTLTLSKADYEKHKVYACEVTHQGLSSPVTKSFNRGEC
notes: hIgG1, Kappa; also called BSN 3C6 (WO2019238882)
B2 was tested, and the “RGA Efficacy (%)” value (human IL-11 [10]) was 76.7%, the “RGA IC50” value (human IL-11 [10]) was 3.7 nM and the “RGA Efficacy (%)” value (cynomolgus IL-11 [11]) was 52.4%. For the same binder, the “RGA Efficacy (%)” value (murine IL-11 [12]) was 90.9%, the “RGA IC50” value (murine IL-11 [12]) was 8.1 nM and the “RGA Efficacy (%)” value (rat IL-11 [13]) was 81.3%. For the same binder, the “RGA IC50” value (rat IL-11 [13]) was 8.8 nM, the Kd (human IL-11 [14]) was 1.4 nM and the binding result (cynomolgus IL-11 [15]) was “no binding (tested: IL-11 up to 200 nM)”. For the same binder, the Kd (murine IL-11 [16]) was 1.8 nM, the Kd (rat IL-11 [17]) was 3.2 nM and the “Efficacy (%)” value (human IL-11 [18]) was 97.2%. For the same binder, the IC50 (human IL-11 [18]) was 2.9 nM, the “Efficacy (%)” value (murine IL-11 [19]) was 98.4% and the IC50 (murine IL-11 [19]) was 3.3 nM.
